Source: PMC7265326

Target: PKD2-mNeonGreen (PKD2-mNG) in cilia (Chlamydomonas)
Assay: stepwise photobleaching

“PKD2-mNeonGreen (PKD2-mNG) in cilia (domain or fragment)” was tested, and the photobleaching steps per particle was 2.8 steps and the stoichiometry N was greater than 3.
